Blank lines part the entries; values can stand above or below the molecule they belong to.
B3: Pol32, accessory subunit of DNA polymerase ζ (Polζ) (natural protein, Saccharomyces cerevisiae, UniProt P47110 1-350, looked up)
chain: MDQKASYFINEKLFTEVKPVLFTDLIHHLKIGPSMAKKLMFDYYKQTTNAKYNCVVICCYKDQTIKIIHDLSNIPQQDSIIDCFIYAFNPMDSFIPYYDIIDQKDCLTIKNSYELKVSESSKIIERTKTLEEKSKPLVRPTARSKTTPEETTGRKSKSKDMGLRSTALLAKMKKDRDDKETSRQNELRKRKEENLQKINKQNPEREAQMKELNNLFVEDDLDTEEVNGGSKPNSPKETDSNDKDKNNDDLEDLLETTAEDSLMDVPKIQQTKPSETEHSKEPKSEEEPSSFIDEDGYIVTKRPATSTPPRKPSPVVKRALSSSKKQETPSSNKRLKKQGTLESFFKRKAK
notes: Pol32, Saccharomyces cerevisiae, accessory subunit of Polζ, full-length (residues 1-350); The full-length protein was in the sample; also called Pol32N; source: expressed in yeast from plasmids pBJ1462 and pBJ1524, purified as the Polζ holoenzyme
B4: Pol31, accessory subunit of DNA polymerase ζ (Polζ) (natural protein, Saccharomyces cerevisiae, UniProt P46957 1-487, looked up)
chain: MDALLTKFNEDRSLQDENLSQPRTRVRIVDDNLYNKSNPFQLCYKKRDYGSQYYHIYQYRLKTFRERVLKECDKRWDAGFTLNGQLVLKKDKVLDIQGNQPCWCVGSIYCEMKYKPNVLDEVINDTYGAPDLTKSYTDKEGGSDEIMLEDESGRVLLVGDFIRSTPFITGVVVGILGMEAEAGTFQVLDICYPTPLPQNPFPAPIATCPTRGKIALVSGLNLNNTSPDRLLRLEILREFLMGRINNKIDDISLIGRLLICGNSVDFDIKSVNKDELMISLTEFSKFLHNILPSISVDIMPGTNDPSDKSLPQQPFHKSLFDKSLESYFNGSNKEILNLVTNPYEFSYNGVDVLAVSGKNINDICKYVIPSNDNGESENKVEEGESNDFKDDIEHRLDLMECTMKWQNIAPTAPDTLWCYPYTDKDPFVLDKWPHVYIVANQPYFGTRVVEIGGKNIKIISVPEFSSTGMIILLDLETLEAETVKIDI
notes: Pol31, Saccharomyces cerevisiae, accessory subunit of Polζ, full-length (residues 1-487); source: expressed in yeast from plasmids pBJ1462 and pBJ1524, purified as the Polζ holoenzyme

Legend:
[1] = target: T1, Polζ holoenzyme (Rev3-Rev7-Pol31-Pol32) (Saccharomyces cerevisiae, UniProt P14284); experiment: cryo-EM structure, […] Å; assay type: binding; conditions: ternary complex with dideoxy-terminated A:C mismatched primer-template DNA, templating G; 1 mM dCTP; CaCl2 (Ca2+ metal B); Rev3 active site, fingers open
T1 construct: full-length subunits, holoenzyme expressed in yeast from plasmids pBJ1462 and pBJ1524; pentameric complex with two Rev7 (Rev7A, Rev7B); with DNA polymerase zeta processivity subunit; DNA polymerase delta small subunit; DNA polymerase delta subunit 3
T1 sequence (P14284 whole entry, one chain of several): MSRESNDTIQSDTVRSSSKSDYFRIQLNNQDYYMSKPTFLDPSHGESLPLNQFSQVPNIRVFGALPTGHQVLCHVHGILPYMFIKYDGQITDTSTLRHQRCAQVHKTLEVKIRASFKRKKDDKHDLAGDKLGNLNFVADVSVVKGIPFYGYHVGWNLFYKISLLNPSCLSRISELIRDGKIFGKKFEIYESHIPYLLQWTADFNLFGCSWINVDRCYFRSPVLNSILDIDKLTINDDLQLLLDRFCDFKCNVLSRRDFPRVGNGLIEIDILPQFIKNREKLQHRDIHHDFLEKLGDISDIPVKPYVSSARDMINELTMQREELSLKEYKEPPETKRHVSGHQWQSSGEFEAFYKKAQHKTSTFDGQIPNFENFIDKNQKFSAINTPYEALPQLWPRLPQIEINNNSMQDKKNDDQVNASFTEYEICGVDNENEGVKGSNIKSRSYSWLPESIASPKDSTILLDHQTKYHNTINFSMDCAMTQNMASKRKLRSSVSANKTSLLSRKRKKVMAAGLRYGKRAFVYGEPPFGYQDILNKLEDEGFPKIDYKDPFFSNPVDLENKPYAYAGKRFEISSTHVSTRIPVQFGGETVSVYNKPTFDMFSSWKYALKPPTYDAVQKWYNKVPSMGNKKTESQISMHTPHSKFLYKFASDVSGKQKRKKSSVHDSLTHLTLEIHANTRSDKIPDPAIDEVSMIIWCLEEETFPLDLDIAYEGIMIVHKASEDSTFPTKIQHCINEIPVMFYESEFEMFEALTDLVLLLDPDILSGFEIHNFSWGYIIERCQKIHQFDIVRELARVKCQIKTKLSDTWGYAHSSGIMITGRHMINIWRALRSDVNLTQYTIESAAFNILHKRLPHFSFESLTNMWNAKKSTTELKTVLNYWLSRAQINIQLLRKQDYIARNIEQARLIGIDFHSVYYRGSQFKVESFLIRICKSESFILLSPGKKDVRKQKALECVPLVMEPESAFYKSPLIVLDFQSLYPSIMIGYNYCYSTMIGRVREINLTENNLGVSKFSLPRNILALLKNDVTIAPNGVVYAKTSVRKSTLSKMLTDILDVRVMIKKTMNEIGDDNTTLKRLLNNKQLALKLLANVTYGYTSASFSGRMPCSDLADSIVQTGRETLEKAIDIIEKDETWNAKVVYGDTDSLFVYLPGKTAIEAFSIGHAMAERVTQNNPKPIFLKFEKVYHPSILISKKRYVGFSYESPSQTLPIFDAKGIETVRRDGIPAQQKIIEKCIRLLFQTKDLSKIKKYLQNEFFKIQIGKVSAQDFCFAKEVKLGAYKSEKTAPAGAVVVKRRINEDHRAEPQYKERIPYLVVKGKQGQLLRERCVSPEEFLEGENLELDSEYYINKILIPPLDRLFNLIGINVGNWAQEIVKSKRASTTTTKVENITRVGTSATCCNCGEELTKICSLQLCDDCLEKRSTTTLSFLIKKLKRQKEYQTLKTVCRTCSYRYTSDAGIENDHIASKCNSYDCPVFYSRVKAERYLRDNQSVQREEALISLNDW

Rev3 (Polζ catalytic …) = target: Rev3 (Polζ catalytic subunit);Rev7;Pol31;Pol32 (Saccharomyces cerevisiae;Saccharomyces …, UniProt P14284;P38927;P46957;P47110 1-1504;1-245;1-487;1-350, |||); experiment: cryo-EM structure (3.05 Å); 1 mM dCTP, CaCl2; metal ion B; CaCl2-supplemented buffer, DNA in 1.5 molar excess, 1 mM dCTP; salt, pH and temperature not given; conditions: protein: recombinant;recombinant;recombinant;recombinant; tags: ;;;; copies: 1;2;1;1; self-annealed palindrome, 2 copies of one strand; 5' overhang 5 nt (TAATG, templating G); A6:C30 mismatch at primer terminus; central A:A
Sequence of Rev3 (Polζ catalytic subunit);Rev7;Pol31;Pol32 (P14284 whole entry, one chain of several): as above

[2] = target: T2, Rev3, catalytic subunit of DNA polymerase ζ (Polζ) (Saccharomyces cerevisiae, UniProt P14284 1-1504); experiment: cryo-EM structure; Polζ holoenzyme incubated in a CaCl2 supplemented buffer with palindromic DNA (1.5 molar excess) with an A:C mismatch at the primer terminus, 1 mM dCTP; nominal resolution 3.05 Å; conditions: both partners purified
T2 construct: Rev3, Saccharomyces cerevisiae, catalytic subunit of Polζ, full-length (residues 1-1,504); also called catalytic Rev3; source: expressed in yeast from plasmids pBJ1462 and pBJ1524, purified as the Polζ holoenzyme
T2 sequence (P14284 whole entry, the tested form may be a part): as the sequence (P14284 whole entry, one chain of several) above

[3] = target: B3; experiment: as above; conditions: both partners purified
[4] = target: B4; experiment: as above; conditions: both partners purified

Molecule: Nc1ccn([C@H]2C[C@H](O)[C@@H](COP(=O)(O)OP(=O)(O)OP(=O)(O)O)O2)c(=O)n1 [dCTP]
cryo-EM structure, 3.05 Å [1]: Rev3 is observed with the incoming nucleotide dCTP (position P0) opposite the templating base G

B1: A:C mismatched palindromic template-primer (dsDNA)
DNA 1: TAATGATAGGGGAGGGAATCCCTCCCCTAC
DNA 2: TAATGATAGGGGAGGGAATCCCTCCCCTAC
modifications: 3'-dideoxy C terminus
binding result (Rev3 (Polζ catalytic …)): binds

binding result [2]: binds
binding result [3]: binds
B2: Rev7, accessory subunit of DNA polymerase ζ (Polζ) (natural protein, Saccharomyces cerevisiae, UniProt P38927 1-245, looked up)
chain: MNRWVEKWLRVYLKCYINLILFYRNVYPPQSFDYTTYQSFNLPQFVPINRHPALIDYIEELILDVLSKLTHVYRFSICIINKKNDLCIEKYVLDFSELQHVDKDDQIITETEVFDEFRSSLNSLIMHLEKLPKVNDDTITFEAVINAIELELGHKLDRNRRVDSLEEKAEIERDSNWVKCQEDENLPDNNGFQPPKIKLTSLVGSDVGPLIIHQFSEKLISGDDKILNGVYSQYEEGESIFGSLF
notes: Rev7, Saccharomyces cerevisiae, accessory subunit of Polζ, full-length (residues 1-245); Two copies (Rev7A and Rev7B) stand in the pentameric holoenzyme; also called Rev7B; source: expressed in yeast from plasmids pBJ1462 and pBJ1524, purified as the Polζ holoenzyme

Molecule: B3
binding result [4]: binds

Molecule: B4
binding result [2]: binds
